What follows are substances tested against CLIP102-120 labeled with FITC (human) (assay: fluorescence polarisation; equilibrium; empty DR from bacterial expression varied from 4 µM to 7.8125 nM (2-fold dilutions), CLIP-FITC fixed at 100 nM).

| Substance | Kd [nM] |
| --- | --- |
| empty HLA-DR DRA*01:01(N62A)/DRB1*01:01 from bacterial expression (complex) | 1110 |
| empty HLA-DR DRA*01:01(N62A)/DRB1*01:02 from bacterial expression (complex) | 512 |
| empty HLA-DR DRA*01:01/DRB1*01:01 from bacterial expression (complex) | 414 |
| empty HLA-DR DRA*01:01/DRB1*01:01(R71A) from bacterial expression (complex) | 1360 |
| empty HLA-DR DRA*01:01/DRB1*01:02 from bacterial expression (complex) | 325 |
| empty HLA-DR DRA*01:01/DRB1*01:02(R71A) from bacterial expression (complex) | 508 |

What follows are substances tested against CLIP102-120 labeled with FITC (human) (assay: fluorescence polarisation; dissociation of 100 nM DR/CLIP-FITC complexes with 20 µM unlabeled CLIP102-120 as competitor, no DM (intrinsic off-rate), 37 °C, phosphate/citrate buffer pH 5.2).

| Substance | koff [s⁻¹] |
| --- | --- |
| HLA-DR DRA*01:01/DRB1*01:01, insect cell-expressed (complex) | 1.06e-05 |
| HLA-DR DRA*01:01/DRB1*01:02, insect cell-expressed (complex) | 2.45e-05 |
| HLA-DR DRA*01:01/DRB1*03:01, insect cell-expressed (complex) | 0.000317 |
| HLA-DR DRA*01:01/DRB1*04:01, insect cell-expressed (complex) | 4.23e-05 |
| HLA-DR DRA*01:01/DRB1*04:04, insect cell-expressed (complex) | 3.22e-05 |
| HLA-DR DRA*01:01/DRB1*07:01, insect cell-expressed (complex) | 3.25e-05 |
| HLA-DR DRA*01:01/DRB1*08:01, insect cell-expressed (complex) | 6.88e-05 |
| HLA-DR DRA*01:01/DRB1*08:02, insect cell-expressed (complex) | 1.01e-05 |
| HLA-DR DRA*01:01/DRB1*13:01, insect cell-expressed (complex) | 7.9e-05 |
| HLA-DR DRA*01:01/DRB1*13:02, insect cell-expressed (complex) | 0.000148 |
| HLA-DR DRA*01:01/DRB1*14:01, insect cell-expressed (complex) | 6.27e-05 |
| HLA-DR DRA*01:01/DRB1*15:01, insect cell-expressed (complex) | 0.000223 |
